T1: calcium- and integrin-binding protein 1 (CIB1) (human (endogenous in platelets), UniProt Q99828 1-191)
T1 sequence (looked up): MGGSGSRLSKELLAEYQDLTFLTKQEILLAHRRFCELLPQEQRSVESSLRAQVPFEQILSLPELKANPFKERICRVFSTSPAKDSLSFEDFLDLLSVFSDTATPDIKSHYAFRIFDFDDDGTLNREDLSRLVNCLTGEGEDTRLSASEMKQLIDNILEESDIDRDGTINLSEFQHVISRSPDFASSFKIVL


Legend:
[1] = biological target: calcium- and integrin-binding protein 1 (CIB1) (human (endogenous in platelets)) (UniProt Q99828); test: co-IP; anti-CIB1 immunoprecipitates (overnight 4°C, protein G-Sepharose) of pre-cleared 1% Nonidet P-40 lysates of washed human platelets exposed to BSA or immobilized Fg for ~45 min; blots for αIIb, FAK, c-Src; treatments: DMSO, BAPTA-AM (50 μM), cytochalasin D after adhesion
[2] = biological target: T1, calcium- and integrin-binding protein 1 …; test: cell-based or functional assay

fold reduction of co-precipitated αIIb with BAPTA-AM against vehicle [1] [fold]	c-Src activation (pY418 blot of lysates) in human platelets on immobilized Fg; inhibition by the incorporated αIIb peptide, which blocks CIB1 with αIIb (m1+m2) [2] [fold]	Molecule
6	–	integrin αIIb subunit of αIIbβ3 (receptor)
–	> 8	KVGFFKRNRPPLEEDDEEGE (peptide, UniProt P08514 1020-1039, looked up) [αIIb cytoplasmic domain peptide]
